Source: article PMC9723610
Like-named read-outs stand apart in the source and are kept apart here.

Experiments:
hG3BP1 [1] = target: T1, hG3BP1 (human, UniProt Q13283 1-466); test: EMSA
hG3BP1 [2] = target: T1, hG3BP1; test: EMSA; remark: listed apart in the source

T1 sequence (Q13283 whole entry): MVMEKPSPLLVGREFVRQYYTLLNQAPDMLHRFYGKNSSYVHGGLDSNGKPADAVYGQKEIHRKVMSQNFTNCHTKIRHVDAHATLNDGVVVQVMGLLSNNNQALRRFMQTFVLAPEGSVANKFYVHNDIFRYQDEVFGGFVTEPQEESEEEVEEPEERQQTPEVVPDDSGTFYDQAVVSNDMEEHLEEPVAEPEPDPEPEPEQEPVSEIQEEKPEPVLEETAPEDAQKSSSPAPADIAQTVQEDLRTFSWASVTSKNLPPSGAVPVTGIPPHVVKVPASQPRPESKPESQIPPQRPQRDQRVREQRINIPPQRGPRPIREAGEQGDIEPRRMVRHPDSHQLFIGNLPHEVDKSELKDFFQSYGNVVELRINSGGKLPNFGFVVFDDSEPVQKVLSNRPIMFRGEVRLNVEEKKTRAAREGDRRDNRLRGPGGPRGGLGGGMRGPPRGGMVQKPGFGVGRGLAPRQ

| Binder | binding result (hG3BP1 [1]) | binding result (hG3BP1 [2]) |
| --- | --- | --- |
| AGGAGGAGGAGGAGG (structured_RNA) [r(AGG)5 rG4] | binds |  |
| GGGUUAGGGUUAGGGUUAGGG (structured_RNA) [rOG0 rG4] |  | binds |
| AGGGGGCCGUGGGGUGGGAGCUGGGG (structured_RNA) [BCL2 rG4 (rBCL2)] |  | binds |
| GUGUGGGAGGGGCGGGUCUGGGUGCG (structured_RNA) [NRAS rG4 (rNRAS)] |  | binds |
